Reference: US20190083583A1 (Alexion, published 2019)

Biological target: M6P receptor on the surface of human MPS IIIB skin fibroblasts (human)
Test: cell-based or functional assay

NaGlu enzymatic activity in human MPS IIIB fibroblasts after 24 h with 0.3 ug/mL rhNaGlu (cellular uptake): ~50 % of wild-type fibroblast activity
NaGlu enzymatic activity in human MPS IIIB fibroblasts after 24 h with 1 ug/mL rhNaGlu (cellular uptake): ~4 fold of wild-type fibroblast activity
NaGlu enzymatic activity in human MPS IIIB fibroblasts after 24 h with 30 ug/mL rhNaGlu (cellular uptake): ≥ 40 fold of wild-type fibroblast activity
B1: recombinant human N-acetyl-alpha-D-glucosaminidase (rhNaGlu) produced in transgenic avian (Gallus) egg white (enzyme)
chain: DEAREAAAVRALVARLLGPGPAADFSVSVERALAAKPGLDTYSLGGGGAARVRVRGSTGVAAAAGLHRYLRDFCGCHVAWSGSQLRLPRPLPAVPGELTEATPNRYRYYQNVCTQSYSFVWWDWARWEREIDWMALNGINLALAWSGQEAIWQRVYLALGLTQAEINEFFTGPAFLAWGRMGNLHTWDGPLPPSWHIKQLYLQHRVLDQMRSFGMTPVLPAFAGHVPEAVTRVFPQVNVTKMGSWGHFNCSYSCSFLLAPEDPIFPIIGSLFLRELIKEFGTDHIYGADTFNEMQPPSSEPSYLAAATTAVYEAMTAVDTEAVWLLQGWLFQHQPQFWGPAQIRAVLGAVPRGRLLVLDLFAESQPVYTRTASFQGQPFIWCMLHNFGGNHGLFGALEAVNGGPEAARLFPNSTMVGTGMAPEGISQNEVVYSLMAELGWRKDPVPDLAAWVTSFAARRYGVSHPDAGAAWRLLLRSVYNCSGEACRGHNRSPLVRRPSLQMNTSIWYNRSDVFEAWRLLLTSAPSLATSPAFRYDLLDLTRQAVQELVSLYYEEARSAYLSKELASLLRAGGVLAYELLPALDEVLASDSRFLLGSWLEQARAAAVSEAEADFYEQNSRYQLTLWGPEGNILDYANKQLAGLVANYYTPRWRLFLEALVDSVAQGIPFQQHQFDKNVFQLEQAFVLSKQRYPSQPRGDTVDLAKKIFLKYYPRWVAGSW
modifications: N-linked glycans carrying mannose-6-phosphate (3.2 moles of M6P per mole of protein), mannose and GlcNAc; sites not stated
